Tested on: peptide library, one residue held at a place counted from the S/T acceptor
Assay: relative phosphorylation of the sub-library (ratio to the mean residue at this position); higher = residue favoured
Settings: human
How it was run: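 Relative sub-library phosphorylation, a ratio to the mean residue at that position, was obtained by phosphorimaging and densitometry of spots on streptavidin membranes. Before capture, purified recombinant kinases were incubated for 90 min under kinase-specific conditions with 50 μM biotinylated degenerate peptide sub-libraries and 50 μM ATP spiked with γ-32P-ATP. Each sub-library fixed one residue at one position around a central Ser/Thr.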

NUAK2, construct: Full length, sequence (Q9H093 whole entry, looked up): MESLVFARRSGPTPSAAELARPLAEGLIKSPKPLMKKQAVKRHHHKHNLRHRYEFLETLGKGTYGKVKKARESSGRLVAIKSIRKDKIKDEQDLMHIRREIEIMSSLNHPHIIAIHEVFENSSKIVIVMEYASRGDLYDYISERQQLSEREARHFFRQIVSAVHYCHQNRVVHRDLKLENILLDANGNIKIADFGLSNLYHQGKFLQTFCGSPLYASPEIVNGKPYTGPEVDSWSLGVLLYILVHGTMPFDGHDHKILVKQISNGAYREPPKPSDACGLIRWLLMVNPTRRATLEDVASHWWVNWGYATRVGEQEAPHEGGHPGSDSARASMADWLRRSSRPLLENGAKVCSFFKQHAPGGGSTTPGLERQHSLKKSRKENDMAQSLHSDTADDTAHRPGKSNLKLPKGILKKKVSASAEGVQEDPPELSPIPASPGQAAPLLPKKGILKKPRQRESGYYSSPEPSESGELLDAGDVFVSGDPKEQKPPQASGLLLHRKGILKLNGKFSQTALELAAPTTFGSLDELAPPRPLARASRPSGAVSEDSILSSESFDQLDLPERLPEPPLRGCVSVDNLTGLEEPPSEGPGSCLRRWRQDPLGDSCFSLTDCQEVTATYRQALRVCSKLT

With “NUAK2, construct: Full length (from UniProt Q9H093)” the relative phosphorylation (A fixed, at +1) was 0.911, the relative phosphorylation (A fixed, at +2) was 0.916 and the relative phosphorylation (A fixed, at +3) was 0.886. The relative phosphorylation (A fixed, at +4) was 0.691, the relative phosphorylation (A fixed, at -1) was 1.22 and the relative phosphorylation (A fixed, at -2) was 1.89. The relative phosphorylation (A fixed, at -3) was 0.724, the relative phosphorylation (A fixed, at -4) was 1.15 and the relative phosphorylation (A fixed, at -5) was 0.804. It also gave a relative phosphorylation (D fixed, at +1) of 0.559, a relative phosphorylation (D fixed, at +2) of 0.547 and a relative phosphorylation (D fixed, at +3) of 1.29. The relative phosphorylation (D fixed, at +4) was 0.509, the relative phosphorylation (D fixed, at -1) was 0.855 and the relative phosphorylation (D fixed, at -2) was 0.865. For the same substance, the relative phosphorylation (D fixed, at -3) was 0.378, the relative phosphorylation (D fixed, at -4) was 0.554 and the relative phosphorylation (D fixed, at -5) was 0.385. For the same substance, the relative phosphorylation (E fixed, at +1) was 0.598, the relative phosphorylation (E fixed, at +2) was 0.535 and the relative phosphorylation (E fixed, at +3) was 0.635. The relative phosphorylation (E fixed, at +4) was 0.498, the relative phosphorylation (E fixed, at -1) was 0.549 and the relative phosphorylation (E fixed, at -2) was 0.503. For the same substance, the relative phosphorylation (E fixed, at -3) was 0.514, the relative phosphorylation (E fixed, at -4) was 0.867 and the relative phosphorylation (E fixed, at -5) was 0.435. The relative phosphorylation (F fixed, at +1) was 1.71, the relative phosphorylation (F fixed, at +2) was 0.654 and the relative phosphorylation (F fixed, at +3) was 1.16. The relative phosphorylation (F fixed, at +4) was 0.862, the relative phosphorylation (F fixed, at -1) was 0.705 and the relative phosphorylation (F fixed, at -2) was 0.722. For the same substance, the relative phosphorylation (F fixed, at -3) was 0.461, the relative phosphorylation (F fixed, at -4) was 0.764 and the relative phosphorylation (F fixed, at -5) was 1.07. It also gave a relative phosphorylation (G fixed, at +1) of 1.18, a relative phosphorylation (G fixed, at +2) of 1.14 and a relative phosphorylation (G fixed, at +3) of 0.712. It also gave a relative phosphorylation (G fixed, at +4) of 0.702, a relative phosphorylation (G fixed, at -1) of 1.42 and a relative phosphorylation (G fixed, at -2) of 0.979. For the same substance, the relative phosphorylation (G fixed, at -3) was 0.725, the relative phosphorylation (G fixed, at -4) was 0.862 and the relative phosphorylation (G fixed, at -5) was 0.603. It also gave a relative phosphorylation (H fixed, at +1) of 0.898, a relative phosphorylation (H fixed, at +2) of 1.35 and a relative phosphorylation (H fixed, at +3) of 1.61. The relative phosphorylation (H fixed, at +4) was 0.907, the relative phosphorylation (H fixed, at -1) was 0.911 and the relative phosphorylation (H fixed, at -2) was 0.659. For the same substance, the relative phosphorylation (H fixed, at -3) was 1.01, the relative phosphorylation (H fixed, at -4) was 0.912 and the relative phosphorylation (H fixed, at -5) was 0.605. For the same substance, the relative phosphorylation (I fixed, at +1) was 0.691, the relative phosphorylation (I fixed, at +2) was 0.99 and the relative phosphorylation (I fixed, at +3) was 0.713. The relative phosphorylation (I fixed, at +4) was 2.05, the relative phosphorylation (I fixed, at -1) was 0.45 and the relative phosphorylation (I fixed, at -2) was 0.761. For the same substance, the relative phosphorylation (I fixed, at -3) was 0.452, the relative phosphorylation (I fixed, at -4) was 1 and the relative phosphorylation (I fixed, at -5) was 2.27. It also gave a relative phosphorylation (K fixed, at +1) of 1.08, a relative phosphorylation (K fixed, at +2) of 1.66 and a relative phosphorylation (K fixed, at +3) of 1.26. The relative phosphorylation (K fixed, at +4) was 1.32, the relative phosphorylation (K fixed, at -1) was 1.44 and the relative phosphorylation (K fixed, at -2) was 0.975. The relative phosphorylation (K fixed, at -3) was 2.61, the relative phosphorylation (K fixed, at -4) was 1.59 and the relative phosphorylation (K fixed, at -5) was 1.3. It also gave a relative phosphorylation (L fixed, at +1) of 0.739, a relative phosphorylation (L fixed, at +2) of 0.839 and a relative phosphorylation (L fixed, at +3) of 0.705. For the same substance, the relative phosphorylation (L fixed, at +4) was 1.87, the relative phosphorylation (L fixed, at -1) was 0.84 and the relative phosphorylation (L fixed, at -2) was 0.528. The relative phosphorylation (L fixed, at -3) was 0.541, the relative phosphorylation (L fixed, at -4) was 0.858 and the relative phosphorylation (L fixed, at -5) was 1.73. For the same substance, the relative phosphorylation (M fixed, at +1) was 1.24, the relative phosphorylation (M fixed, at +2) was 0.909 and the relative phosphorylation (M fixed, at +3) was 0.828. For the same substance, the relative phosphorylation (M fixed, at +4) was 1.55, the relative phosphorylation (M fixed, at -1) was 1.07 and the relative phosphorylation (M fixed, at -2) was 0.83. It also gave a relative phosphorylation (M fixed, at -3) of 0.73, a relative phosphorylation (M fixed, at -4) of 1.37 and a relative phosphorylation (M fixed, at -5) of 1.02. It also gave a relative phosphorylation (N fixed, at +1) of 1, a relative phosphorylation (N fixed, at +2) of 1.07 and a relative phosphorylation (N fixed, at +3) of 1.44. For the same substance, the relative phosphorylation (N fixed, at +4) was 0.74, the relative phosphorylation (N fixed, at -1) was 1.26 and the relative phosphorylation (N fixed, at -2) was 2.66. It also gave a relative phosphorylation (N fixed, at -3) of 0.566, a relative phosphorylation (N fixed, at -4) of 0.628 and a relative phosphorylation (N fixed, at -5) of 0.435. For the same substance, the relative phosphorylation (P fixed, at +1) was 0.896, the relative phosphorylation (P fixed, at +2) was 0.727 and the relative phosphorylation (P fixed, at +3) was 0.529. For the same substance, the relative phosphorylation (P fixed, at +4) was 0.679, the relative phosphorylation (P fixed, at -1) was 1.42 and the relative phosphorylation (P fixed, at -2) was 0.602. It also gave a relative phosphorylation (P fixed, at -3) of 0.88, a relative phosphorylation (P fixed, at -4) of 0.86 and a relative phosphorylation (P fixed, at -5) of 0.735. The relative phosphorylation (Q fixed, at +1) was 1.16, the relative phosphorylation (Q fixed, at +2) was 0.745 and the relative phosphorylation (Q fixed, at +3) was 0.766. For the same substance, the relative phosphorylation (Q fixed, at +4) was 0.624, the relative phosphorylation (Q fixed, at -1) was 1.09 and the relative phosphorylation (Q fixed, at -2) was 1.23. For the same substance, the relative phosphorylation (Q fixed, at -3) was 0.739, the relative phosphorylation (Q fixed, at -4) was 0.954 and the relative phosphorylation (Q fixed, at -5) was 0.613. For the same substance, the relative phosphorylation (R fixed, at +1) was 1.51, the relative phosphorylation (R fixed, at +2) was 2.48 and the relative phosphorylation (R fixed, at +3) was 1.69. It also gave a relative phosphorylation (R fixed, at +4) of 1.1, a relative phosphorylation (R fixed, at -1) of 1.65 and a relative phosphorylation (R fixed, at -2) of 1.23. It also gave a relative phosphorylation (R fixed, at -3) of 5.28, a relative phosphorylation (R fixed, at -4) of 1.8 and a relative phosphorylation (R fixed, at -5) of 1.66. It also gave a relative phosphorylation (V fixed, at +1) of 0.763, a relative phosphorylation (V fixed, at +2) of 0.927 and a relative phosphorylation (V fixed, at +3) of 0.614. The relative phosphorylation (V fixed, at +4) was 1.07, the relative phosphorylation (V fixed, at -1) was 0.581 and the relative phosphorylation (V fixed, at -2) was 1.26. The relative phosphorylation (V fixed, at -3) was 0.443, the relative phosphorylation (V fixed, at -4) was 1.13 and the relative phosphorylation (V fixed, at -5) was 1.74. For the same substance, the relative phosphorylation (W fixed, at +1) was 0.868, the relative phosphorylation (W fixed, at +2) was 0.717 and the relative phosphorylation (W fixed, at +3) was 1.07. It also gave a relative phosphorylation (W fixed, at +4) of 0.931, a relative phosphorylation (W fixed, at -1) of 0.557 and a relative phosphorylation (W fixed, at -2) of 0.598. For the same substance, the relative phosphorylation (W fixed, at -3) was 0.471, the relative phosphorylation (W fixed, at -4) was 0.837 and the relative phosphorylation (W fixed, at -5) was 0.687. For the same substance, the relative phosphorylation (Y fixed, at +1) was 1.19, the relative phosphorylation (Y fixed, at +2) was 0.785 and the relative phosphorylation (Y fixed, at +3) was 1.09. The relative phosphorylation (Y fixed, at +4) was 0.896, the relative phosphorylation (Y fixed, at -1) was 0.962 and the relative phosphorylation (Y fixed, at -2) was 0.709. For the same substance, the relative phosphorylation (Y fixed, at -3) was 0.474, the relative phosphorylation (Y fixed, at -4) was 0.856 and the relative phosphorylation (Y fixed, at -5) was 0.894. The relative phosphorylation (pThr fixed, at +1) was 1.13, the relative phosphorylation (pThr fixed, at +2) was 1.29 and the relative phosphorylation (pThr fixed, at +3) was 0.495. It also gave a relative phosphorylation (pThr fixed, at +4) of 0.708, a relative phosphorylation (pThr fixed, at -1) of 0.389 and a relative phosphorylation (pThr fixed, at -2) of 0.808. For the same substance, the relative phosphorylation (pThr fixed, at -3) was 0.725, the relative phosphorylation (pThr fixed, at -4) was 0.919 and the relative phosphorylation (pThr fixed, at -5) was 0.653. The relative phosphorylation (pTyr fixed, at +1) was 0.814, the relative phosphorylation (pTyr fixed, at +2) was 0.59 and the relative phosphorylation (pTyr fixed, at +3) was 0.71. For the same substance, the relative phosphorylation (pTyr fixed, at +4) was 0.605, the relative phosphorylation (pTyr fixed, at -1) was 1.03 and the relative phosphorylation (pTyr fixed, at -2) was 0.477. The relative phosphorylation (pTyr fixed, at -3) was 0.531, the relative phosphorylation (pTyr fixed, at -4) was 0.602 and the relative phosphorylation (pTyr fixed, at -5) was 0.76.
